# Data reported in the RNAGym collection of RNA variant scans (doi:10.1073/pnas.2313332121).
# B1: TPR t1 (parent)
# chain: GACCAAUCUGCCCUCAGAGCUCGAGAACAUCUUCGGAUGCAGAGGAGGCAGGCUUCGGUGGCGCGAUAGCGCCAACGUCCUCAACCUCCAAUGCAUCCCACCACAUGAUGAUGCCUGAAGAGCCUUGGUUUUUUG
# Variants of: B1
# Experiment: polymerase ribozyme fitness, log enrichment relative to wild type (log ratio); higher = more active; in vitro selection for triplet polymerase activity
# In short: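 One round of in vitro selection, in triplicate, was applied to PCR-built, transcribed mutant libraries of each subunit of a heterodimeric triplet polymerase ribozyme. The steps were annealing with a biotinylated primer, partner subunit and triplets, incubation frozen at −7 °C, gel excision of extended constructs, streptavidin-bead capture and RT-PCR. Fitness is the logarithm, base 2, of genotype enrichment over wild-type enrichment from inverse-variance-weighted replicate averages of Illumina-sequenced inputs and outputs, keeping genotypes with ≥10 input reads and ≥1 read per output.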
row,Variant,polymerase ribozyme fitness (log ratio)
1,C49U G113U C114U,-2.07
2,A50U G61U U126G,-2.73
3,C49U C70A,-2.47
4,A50C G52C C73U,-4.07
5,A50U C88U A118U,-0.957
6,A50U A83U U133A,-0.994
7,C49U C73A U81G,-2.45
8,A50U G122A,-1.23
9,A50U G52U U87G,-2.24
10,A50U G58A G63U G113C U129G,-7.01
11,C49U U92G A121G,-1.61
12,C49U G63A C80U G120A,-5.11
13,C49U G52A C56G,-2.31
14,A50C G60C,-1.73
15,A50G C53G G60U C72U C101A,-3.8
16,C49U G107A,-3.94
17,A50C C53U A84G,-0.439
18,A50C A90U,-2
19,A50C A90C,-2.1
20,A50C G61C,-3.35
21,A50G C62A,-0.949

row,Variant,polymerase ribozyme fitness (log ratio)
1,A50G U55G G110C,-4.52
2,C49U A95U U130G,-1.71
3,C49U C98A,-5.99
4,C49U G71A G117C,-6.24
5,A50U G61C G122U,-3.51
6,G51A A90G G113C,-5.54
7,C49U C56A C70U C76A U132A,-3.06
8,A50U A118C A121G U129A,-1.76
9,A50U C115A U133C,0.332
10,C49U C72G G113U G117U,-6.76
11,A50C G110U,-1.99
12,C49U G110C,-5.17
13,A50G C72G,-0.204
14,A50U G69A C123G U131G,-4.01
15,A50U C73U U87A,-0.904
16,C49U U130A,-0.901
17,C49U U130C,0.0143
18,G51A C64A U78C A84C G117C,-6.38
19,C49U G93A G122A,-1.37
20,A50C C73G,-1.15
21,A50U G60C,-1.06

row,Variant,polymerase ribozyme fitness (log ratio)
1,A50U G60A,-0.0812
2,A50U C73U,-0.956
3,C49U U106A,-0.703
4,A50G C56U G69C C123G C124G,-5.93
5,A50G G61C,-3.07
6,A50C U92A,-3.05
7,C49U A119U G122U,-1.11
8,C49U C82G U96C C97U C115U U116A,-6.51
9,A50G G113C,-1.84
10,A50G G113U,-2.68
11,C49U C124A,1.2
12,A50U G63A,-1.47
13,A50U A83G,-0.122
14,G51A,-2.49
15,A50G G63A U112A G122A,-1.39
16,A50C C101A,-1.83
17,G51A A100U,-4.16
18,C49U C101G,-2.04
19,A50U G110A,-2.67
20,A50U G110U,-4.06
21,C49U U126A,-1.95

row,Variant,polymerase ribozyme fitness (log ratio)
1,A50G C62U U87A,-0.164
2,A50U G63C C86G U87A,-3.52
3,A50U C70U,-1.67
4,A50G C53A C73U,0.0786
5,C49U G52C G63U C124A,-0.717
6,A50U C62G C86G A105U A108U C124G,-7.62
7,C49U G51U U78G C79G U109G C124G,-6.06
8,C49U G51U C62U C80A,-3.6
9,A50G C62U C82A A121U,1.97
10,A50U C123U,0.00244
11,A50U C56U C73U A83C,-1.69
12,C49U G63U,-2
13,C49U U132C,-0.889
14,C49U U131A,-0.481
15,C49U C56A G120C,0.0733
16,C49U G93A C101U G127C,-2.96
17,A50G A84C C114G,-2.83
18,A50U G65A U78G G120A U126A U129G U130A,-7.26
19,A50C G127A,-0.787
20,A50C A111C,0.0167
21,C49U G58C G60U C114U U129A,-5.08
